The target of assay [1] is T1, human Tie1-Fc fusion protein (Homo sapiens, UniProt P35590).
T1 construct: selected against the Tie1 extracellular domain fused to human Fc or to a histidine purification tag
T1 sequence (P35590 22-759 limits assumed): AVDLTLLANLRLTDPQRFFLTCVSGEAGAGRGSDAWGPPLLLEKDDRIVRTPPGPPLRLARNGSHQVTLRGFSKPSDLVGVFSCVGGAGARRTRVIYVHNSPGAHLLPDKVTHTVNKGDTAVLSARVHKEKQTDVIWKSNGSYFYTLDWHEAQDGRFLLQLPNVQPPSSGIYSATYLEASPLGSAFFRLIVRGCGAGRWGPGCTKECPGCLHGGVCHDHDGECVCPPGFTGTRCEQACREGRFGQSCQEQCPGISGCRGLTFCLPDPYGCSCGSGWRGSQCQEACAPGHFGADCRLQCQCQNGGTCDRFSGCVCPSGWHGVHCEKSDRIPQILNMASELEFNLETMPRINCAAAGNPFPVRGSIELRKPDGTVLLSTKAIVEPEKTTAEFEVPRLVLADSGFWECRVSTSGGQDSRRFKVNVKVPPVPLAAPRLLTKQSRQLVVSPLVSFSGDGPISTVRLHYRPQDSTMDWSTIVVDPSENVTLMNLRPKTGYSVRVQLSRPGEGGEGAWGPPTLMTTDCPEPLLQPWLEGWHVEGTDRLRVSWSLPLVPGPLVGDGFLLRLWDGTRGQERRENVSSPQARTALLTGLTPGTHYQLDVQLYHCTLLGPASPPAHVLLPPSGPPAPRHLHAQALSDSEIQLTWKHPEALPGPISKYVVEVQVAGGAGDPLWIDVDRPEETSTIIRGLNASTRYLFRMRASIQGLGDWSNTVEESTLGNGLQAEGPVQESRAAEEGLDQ
Briefly: BIAcore 3000 affinity analysis of Fab and IgG. The assay is classed as binding. The method, then:
Affinity analysis of the Fab and IgGs was performed using surface plasmon resonance using a BIAcore 3000 instrument. For this analysis both dimeric (Tie1-Fc fusion protein) and monomeric (Tie1-HIS) versions of the extracellular domain of the Tie1 were used. The sensor chips used in these experiments were CM5 (dextran-coated) which allow immobilization of proteins to the chip via standard amine coupling chemistries. The concentration of flowed antibody was determined using a surface plasmon resonance based method. Using a high-density protein A sensor chip, under mass transport limited conditions, the response signal is dependent only on the concentration of the antibody in the sample under test. This approach allows a precise determination of the antibody concentration, a parameter important for accurate determination of the KD.
470 RUs of Tie1 HIS protein were coated on a CM5 sensor chip and 5, 20, 100, and 500 nM of the Fab flowed over the chip at four different flow rates ([…]), rates in which the system is not mass transport limited. Kinetic data was typically determined using a range of analyte concentrations and three different chip coating densities. The data from the lowest coating density that gave a good signal was typically chosen, this was often in a range from 50-100 RUs. Using such low coating densities allowed the sensor curves to be fit using BIAEVALUATION™ 3.0 software to a 1:1 model, often even when using a bivalent analyte (IgG or Tie1-Fc fusion protein). For bivalent analytes, when fit to a 1:1 model was not possible, the curves were fit using a 2:1 model.
The anti-Tie1 antibodies described here bind to both human and mouse Tie1 molecules. The binding of the anti-Tie1 Fab to mouse Tie1-Fc fusion protein was compared with the binding of the anti-Tie1 Fab to human Tie1-Fc fusion protein. In both of these experiments the Tie1-Fc fusion protein was immobilized on the sensor chip and the anti Tie-1 Fab served as the analyte. Under these experimental conditions the anti-Tie1 Fab has very similar KD (˜3 nM) values for both the human and mouse Tie1-Fc fusion proteins (Table 9). Under conditions that are likely to mimic those used in the animal efficacy experiments, i.e. Tie1-Fc immobilized to the CM5 sensor chip and anti-Tie1 used as the analyte, the measured KD was 0.2 nM.

A further assay has as its target T2, human Tie1 Fc (Homo sapiens, UniProt P35590).
T2 construct: selected against the Tie1 extracellular domain fused to human Fc or to a histidine purification tag
T2 sequence (P35590 22-759 limits assumed): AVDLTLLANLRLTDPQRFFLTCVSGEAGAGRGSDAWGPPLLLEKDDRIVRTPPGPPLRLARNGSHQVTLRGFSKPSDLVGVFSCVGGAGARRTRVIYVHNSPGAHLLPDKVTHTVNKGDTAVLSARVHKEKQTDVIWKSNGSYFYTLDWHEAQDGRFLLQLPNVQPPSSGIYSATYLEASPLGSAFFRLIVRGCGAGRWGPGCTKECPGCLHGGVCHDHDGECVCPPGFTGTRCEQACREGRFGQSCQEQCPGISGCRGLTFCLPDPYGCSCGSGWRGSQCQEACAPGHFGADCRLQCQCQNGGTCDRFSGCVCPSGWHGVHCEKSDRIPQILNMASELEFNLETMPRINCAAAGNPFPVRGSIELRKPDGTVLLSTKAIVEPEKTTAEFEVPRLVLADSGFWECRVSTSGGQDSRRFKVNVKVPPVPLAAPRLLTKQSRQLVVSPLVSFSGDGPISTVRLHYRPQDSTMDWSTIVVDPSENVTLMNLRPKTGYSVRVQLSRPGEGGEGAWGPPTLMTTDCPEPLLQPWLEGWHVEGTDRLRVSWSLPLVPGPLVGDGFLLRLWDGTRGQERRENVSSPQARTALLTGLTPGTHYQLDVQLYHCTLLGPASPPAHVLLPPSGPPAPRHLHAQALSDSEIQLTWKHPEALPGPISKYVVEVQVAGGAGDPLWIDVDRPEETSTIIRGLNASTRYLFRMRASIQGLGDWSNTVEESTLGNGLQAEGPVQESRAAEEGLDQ
Briefly: BIAcore, Fab over Tie1/Fc coated on CM5 chip. The following applies: Fab analyte. It counts as binding. From the text:
To evaluate if the binding behaviour had been affected in any way by the conversion of the somatic mutations back to germline residues, the parental and the germlined E3b antibodies were produced and tested in Biacore as Fab fragments. Here, by contrast to what was done for the IgGs (see Example 28), and in order to measure a monovalent interaction, the Fabs were run over the antigen directly coated onto the surface.
Recombinant human Tie1/Fc was coated on a CM5 chip. The surface of the chip was first activated with a 7-minute pulse of 0.05 M NHS/0.2 M EDC, then Tie1/Fc (2 μg/ml in 10 mM sodium acetate, pH 4.0) was run over the chip surface until 750 RUs were coated on the surface. All flow cells were subsequently deactivated with a 7-minute pulse of 1 M ethanolamine hydrochloride, pH 8.5. All further experiments were performed in HBS buffer.
The parental and the germlined E3b Fabs were prepared. A series of dilution (50, 25, 12.5, 6.25 and 3.125 nM) was prepared in HBS buffer. Samples were injected at 30 μl/min for 5.3 minutes using the KINJECT™ program. This was followed by a 10-minute dissociation phase, and the remaining Fab was stripped from the surface with a single 18-sec injection of 50 mM NaOH/1 M NaCl.
Sensorgrams were analyzed using the simultaneous ka/kd fitting program from the BIAEVALUATION™ software 3.1 assuming a 1:1 model.

From patent US20100196361A1, “Method of inhibition of vascular development using an antibody” (DYAX CORP., priority 2003, published 2010) come the findings set out here.

B1: E3: human anti-Tie1 antibody from phage Fab library, reformatted as IgG; HC variable SEQ ID NO:114, LC variable SEQ ID NO:116 (antibody, V domains shown)
VH: EVQLLESGGGLVQPGGSLRLSCAASGFTFSMYGMVWVRQAPGKGLEWVSVISPSGGNTGYADSVKGRFTISRDNSKNTLYLQVNSLRAEDTAVYYCARAPRGYSYGYYYWGQGTLVTVSSASTKGPSVFPLAPSSKSTSGG
VL: DIQMTQSPLSLSASVGDRVTITCRASQGIGHYLAWYQQKPGKVPKLLIYTASTLQSGVPSRFSGSGSGTDFTLTINSLQPEDVATYYCQQFNSYPHTFGQGTRLDIK
modifications: IgG constant regions; Synthetically generated peptide
As for B1, in assay [1], the “Kon” value is 6190 M⁻¹ s⁻¹ and the “koff” value stood at 3.61e-05 s⁻¹.

B2: parental E3 Fab: soluble Fab fragment of the parental E3 anti-Tie1 antibody (antibody, V domains shown)
VH: EVQLLESGGGLVQPGGSLRLSCAASGFTFSMYGMVWVRQAPGKGLEWVSVISPSGGNTGYADSVKGRFTISRDNSKNTLYLQVNSLRAEDTAVYYCARAPRGYSYGYYYWGQGTLVTVSSASTKGPSVFPLAPSSKSTSGG
VL: DIQMTQSPLSLSASVGDRVTITCRASQGIGHYLAWYQQKPGKVPKLLIYTASTLQSGVPSRFSGSGSGTDFTLTINSLQPEDVATYYCQQFNSYPHTFGQGTRLDIK
For B2, the “koff” value with human Tie1 Fc (Human Tie1 Fc coated on CM5) turned out to be 0.00105 s⁻¹; in assay [1], 4.47e-05 s⁻¹. Further, the “kon” value with human Tie1 Fc (Human Tie1 Fc coated on CM5, 750 RU) amounted to 88100 M⁻¹ s⁻¹. Besides, the “Kon” value in assay [1] stood at 8260 M⁻¹ s⁻¹.
